Test results: US8895526B2, “Identification of RNAI targets and use of RNAI for rational therapy of chemotherapy-resistant leukemia and other cancers” (Cold Spring Harbor Laboratory, priority 2009, dated 2014)

Legend:
[1] = test system: tet-on competent MLL/AF9+Nras AML; assay: Pooled negative selection RNAi screening (deep sequencing); format: cell-based, mouse; details: deep sequencing reads, On Dox compared to T0
Outline: (§1)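 A pool of 1230 tet-regulated shRNAs (TRMPV-type) was retrovirally transduced at mostly single copy and ~1000-fold representation into tet-on MLL/AF9+Nras AML cells or immortalized murine embryonic fibroblasts, then cultured on or off doxycycline. shRNA-expressing cells were FACS-sorted, and shRNA representation was quantified by PCR and deep sequencing of genomic DNA, with depletion on dox compared against t0 and off dox.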

[2] = test system: immortalized murine embryonic fibroblasts (Mef); assay: as above; format: cell-based; details: deep sequencing reads, on dox compared to initial representation
Outline: as §1

Molecule	Fold depletion in AML [1]	Fold depletion in Mef [2]
Centa1.940: shRNA, SEQ ID NO: 106 (nucleic acid) TGCTGTTGACAGTGAGCGCCCGAAGGCTCATGTACTTCAATAGTGAAGCCACAGATGTATTGAAGTACATGAGCCTTCGGTTGCCTACTGCCTCGGA	8.24 Fold	1.13 Fold
Hexa.1510: shRNA, SEQ ID NO: 131 (nucleic acid) TGCTGTTGACAGTGAGCGAGAGCAGTAACCTGACAACTAATAGTGAAGCCACAGATGTATTAGTTGTCAGGTTACTGCTCCTGCCTACTGCCTCGGA	1,777.36 Fold	2.13 Fold
Dnajc10.2057: shRNA, SEQ ID NO: 113 (nucleic acid) TGCTGTTGACAGTGAGCGCTCCAACGACAGTGGTATTCAATAGTGAAGCCACAGATGTATTGAATACCACTGTCGTTGGATTGCCTACTGCCTCGGA	8.99 Fold	1.47 Fold
Smpd2.592: shRNA, SEQ ID NO: 183 (nucleic acid) TGCTGTTGACAGTGAGCGACAGCATGTCTACAGTCTGAATTAGTGAAGCCACAGATGTAATTCAGACTGTAGACATGCTGGTGCCTACTGCCTCGGA	8.63 Fold	2.89 Fold
Acpp.818: shRNA, SEQ ID NO: 87 (nucleic acid) TGCTGTTGACAGTGAGCGAAAAGAGAAATCTCGACTCCAATAGTGAAGCCACAGATGTATTGGAGTCGAGATTTCTCTTTCTGCCTACTGCCTCGGA	9.00 Fold	0.85 Fold
Ogg1.395: shRNA, SEQ ID NO: 157 (nucleic acid) TGCTGTTGACAGTGAGCGACAGATCAAGTATGGACACTGATAGTGAAGCCACAGATGTATCAGTGTCCATACTTGATCTGCTGCCTACTGCCTCGGA	8.69 Fold	1.44 Fold
AU018778.350: shRNA, SEQ ID NO: 94 (nucleic acid) TGCTGTTGACAGTGAGCGCCTGAAGATTGCCTGTACCTAATAGTGAAGCCACAGATGTATTAGGTACAGGCAATCTTCAGATGCCTACTGCCTCGGA	8.45 Fold	1.18 Fold
Ccr1.733: shRNA, SEQ ID NO: 101 (nucleic acid) TGCTGTTGACAGTGAGCGCCTGGATTGACTACAAGTTGAATAGTGAAGCCACAGATGTATTCAACTTGTAGTCAATCCAGATGCCTACTGCCTCGGA	472.15 Fold	1.18 Fold
Ntrk3.167: shRNA, SEQ ID NO: 156 (nucleic acid) TGCTGTTGACAGTGAGCGCCTGCAGCAAGACTGAGATCAATAGTGAAGCCACAGATGTATTGATCTCAGTCTTGCTGCAGATGCCTACTGCCTCGGA	8.88 Fold	1.76 Fold
Mgst1.549: shRNA, SEQ ID NO: 142 (nucleic acid) TGCTGTTGACAGTGAGCGCAAGGAGCAGACTGTACTTGTATAGTGAAGCCACAGATGTATACAAGTACAGTCTGCTCCTTATGCCTACTGCCTCGGA	9.14 Fold	1.09 Fold
Fas.1344: shRNA, SEQ ID NO: 118 (nucleic acid) TGCTGTTGACAGTGAGCGCGAGGAGAATTATAAACTGAAATAGTGAAGCCACAGATGTATTTCAGTTTATAATTCTCCTCATGCCTACTGCCTCGGA	8.57 Fold	1.36 Fold
Gart.2713: shRNA, SEQ ID NO: 127 (nucleic acid) TGCTGTTGACAGTGAGCGAACCAGGGTAATTAATCACAAATAGTGAAGCCACAGATGTATTTGTGATTAATTACCCTGGTGTGCCTACTGCCTCGGA	8.73 Fold	2.22 Fold
Klf5.581: shRNA, SEQ ID NO: 135 (nucleic acid) TGCTGTTGACAGTGAGCGCTCCGATAATTTCAGAGCATAATAGTGAAGCCACAGATGTATTATGCTCTGAAATTATCGGAATGCCTACTGCCTCGGA	9.37 Fold	1.01 Fold
